“And” between values parts separate entries of the source, which are not always exact repeats. Identical values can stand only once.
Tests used:
Fc of human IgG1 (human) = assay: cryo-EM structure; pre-SEC O432-17-Fc sample, 0.5 mg/ml in 25 mM Tris pH 8.0, 150 mM NaCl; octahedral symmetry applied; design model refined into the map
[1] = target: O432-17(–) nanoparticle assembled with Fc (human); assay: SEC; in vitro packaging: 1x tetramer, 1x Fc, 1.1x negatively charged trimeric plug, 1x pos36GFP, dialysed 16 h at 25 °C into 25 mM Tris pH 8.0, 200 mM NaCl; Superose 6 10/300 GL; absorbance at 280 and 488 nm

Substance	stoichiometry N (Fc of human IgG1 (human))	stoichiometry N (pos36GFP per nanoparticle) [1]
Fc of human IgG1 (domain or fragment)	2	–
positively charged GFP (pos36GFP)	–	9 and 10
